PMC12915084, “A dsRNA Viral Transcriptional Regulator Evades Innate Immunity by Hijacking Host CoTranscription Factor DHX9”

Key:
[1] = target: T1, σ3 WT (REOV outer capsid protein) (Mammalian orthoreovirus, UniProt P07939 1-365); assay: EMSA; no shift at any σ3 concentration tested; 5 nM R-loop; without DHX9; EMSA: 5 nM R-loop, 0.5% NP-40, 150 mM NaCl, 20 mM Tris-Cl pH 8.0, 0.5 mM EDTA, 37 °C 15 min; 6% native PAGE; conditions: protein: recombinant; tags: Flag; label: 5' Cy5.5 on RNA; three-strand R-loop, DNA duplex arms around an unpaired bubble; RNA nt 1-30 pair with ssDNA-2, 3' RNA overhang 30 nt
T1 sequence: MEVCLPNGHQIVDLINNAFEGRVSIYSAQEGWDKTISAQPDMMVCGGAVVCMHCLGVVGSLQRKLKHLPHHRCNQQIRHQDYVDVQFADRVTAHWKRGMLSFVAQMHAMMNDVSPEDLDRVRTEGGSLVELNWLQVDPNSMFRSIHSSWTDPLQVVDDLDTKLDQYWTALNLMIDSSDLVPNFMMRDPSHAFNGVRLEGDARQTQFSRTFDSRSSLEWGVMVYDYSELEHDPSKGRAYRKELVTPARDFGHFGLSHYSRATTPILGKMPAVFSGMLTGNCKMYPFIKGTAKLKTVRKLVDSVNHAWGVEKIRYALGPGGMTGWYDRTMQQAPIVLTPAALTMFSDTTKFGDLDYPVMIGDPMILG

[2] = target: DHX9 (UniProt Q08211 1-1270); assay: EMSA; shift at 20 nM DHX9; 5 nM R-loop; no ATP or Mg2+ listed in binding buffer; EMSA: 5 nM R-loop, 0.5% NP-40, 150 mM NaCl, 20 mM Tris-Cl pH 8.0, 0.5 mM EDTA, 37 °C 15 min; 6% native PAGE; conditions: protein: recombinant; tags: Flag; label: 5' Cy5.5 on RNA; three-strand R-loop, DNA duplex arms around an unpaired bubble; RNA nt 1-30 pair with ssDNA-2, 3' RNA overhang 30 nt
Chain of DHX9 (Q08211 whole entry): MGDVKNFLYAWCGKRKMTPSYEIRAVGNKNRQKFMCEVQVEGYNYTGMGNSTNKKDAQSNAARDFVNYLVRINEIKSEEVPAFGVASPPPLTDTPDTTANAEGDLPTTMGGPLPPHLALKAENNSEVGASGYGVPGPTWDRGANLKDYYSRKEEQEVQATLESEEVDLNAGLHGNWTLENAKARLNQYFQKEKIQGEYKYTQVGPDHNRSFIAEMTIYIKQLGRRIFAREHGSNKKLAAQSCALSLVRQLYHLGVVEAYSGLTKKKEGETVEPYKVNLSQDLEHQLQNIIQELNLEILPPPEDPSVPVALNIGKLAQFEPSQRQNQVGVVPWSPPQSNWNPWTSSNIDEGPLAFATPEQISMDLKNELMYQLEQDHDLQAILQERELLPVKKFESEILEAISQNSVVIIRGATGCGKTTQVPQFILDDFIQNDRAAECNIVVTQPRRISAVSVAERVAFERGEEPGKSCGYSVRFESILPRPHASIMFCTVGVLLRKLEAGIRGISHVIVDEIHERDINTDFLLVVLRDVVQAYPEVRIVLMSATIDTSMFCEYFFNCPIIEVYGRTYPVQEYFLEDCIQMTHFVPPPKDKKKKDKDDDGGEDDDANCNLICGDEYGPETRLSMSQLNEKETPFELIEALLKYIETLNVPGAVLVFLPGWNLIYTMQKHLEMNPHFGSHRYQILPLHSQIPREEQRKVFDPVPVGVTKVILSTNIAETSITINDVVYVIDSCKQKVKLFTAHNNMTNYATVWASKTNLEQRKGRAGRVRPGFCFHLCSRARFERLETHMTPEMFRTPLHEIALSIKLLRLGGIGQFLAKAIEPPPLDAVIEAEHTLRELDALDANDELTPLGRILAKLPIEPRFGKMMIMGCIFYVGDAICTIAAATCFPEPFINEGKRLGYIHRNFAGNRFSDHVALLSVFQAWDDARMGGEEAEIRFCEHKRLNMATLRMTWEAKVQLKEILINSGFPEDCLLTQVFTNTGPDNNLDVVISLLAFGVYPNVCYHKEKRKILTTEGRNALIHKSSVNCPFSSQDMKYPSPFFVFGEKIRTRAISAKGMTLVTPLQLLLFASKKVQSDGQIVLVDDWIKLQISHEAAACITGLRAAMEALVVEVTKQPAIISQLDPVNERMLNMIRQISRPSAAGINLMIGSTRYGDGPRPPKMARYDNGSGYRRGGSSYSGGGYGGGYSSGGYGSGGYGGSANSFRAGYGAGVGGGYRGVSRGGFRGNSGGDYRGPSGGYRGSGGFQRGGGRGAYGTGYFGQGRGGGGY

B1: R-loop substrate with RNA 3' overhang (mixed)
DNA 1: CATTGCATATTTAAAACATGTTGGATCCCACGTTGCATGCTGATAGCCTACTAGAGCTGTATGAATTCAAATGACCTCTTATCAAGTGAC
DNA 2: GTCACTTGATAAGAGGTCATTTGAATTCATGGCTTAGAGCTTAATTGCTGAATCTGGTGCTGGGATCCAACATGTTTTAAATATGCAATG
RNA: GCACCAGAUUCAGCAAUUAAGCUCUAAGCCGCUGACGGCUCGAUGCUGAUCGUAGCAUCG
binding result [1]: no binding
binding result [2]: binds
